Laboratory results from US20050064514A1 (MacroGenics, published 2005).
Positions count from the first letter of the chain named. Names may count otherwise.

B1: ch4-4-20 MgFc66 (A330V, G427M) (antibody)
chain 1: not shown
chain 2: DVVMTQTPLSLPVSLGDQASISCRSSQSLVHSNGNTYLRWYLQKPGQSPKVLIYKVSNRFSGVPDRFSGSGSGTDFTLKISRVEAEDLGVYFCSQSTHVPWTFGGGTKLEIKRTVAAPSVFIFPPSDEQLKSGTASVVCLLNNFYPREAKVQWKVDNALQSGNSQESVTEQDSKDSTYSLSSTLTLSKADYEKHKVYACEVTHQGLSSPVTKSFNRGEC
B2: ch4-4-20 K288N, A330S, P396L (antibody)
chain: EPKSCDKTHTCPPCPAPELLGGPSVFLFPPKPKDTLMISRTPEVTCVVVDVSHEDPEVKFNWYVDGVEVHNANTKPREEQYNSTYRVVSVLTVLHQDWLNGKEYKCKVSNKALPSPIEKTISKAKGQPREPQVYTLPPSREEMTKNQVSLTCLVKGFYPSDIAVEWESNGQPENNYKTTPLVLDSDGSFFLYSKLTVDKSRWQQGNVFSCSVMHEALHNHYTQKSLSLSPGK
B3: ch4-4-20 Y319F, P352L, P396L (antibody)
chain: B2 chain with N73K, Y104F, S115A, P137L
B4: ch4-4-20 E293V, Q295E, A327T (antibody)
chain: B2 chain with N73K, E78V, Q80E, A112T, S115A, L181P

Assays:
[1] = target: T1, FcγRIIB-Fc fusion protein (soluble dimeric FcγRIIB) (human, UniProt P31994 43-217); experiment: BIAcore ch4-4-20
T1 construct: extracellular domain; also called FcRIIB-Fc; FcR2B; not shown: hinge-CH2-CH3 domain of human IgG2
T1 sequence (looked up): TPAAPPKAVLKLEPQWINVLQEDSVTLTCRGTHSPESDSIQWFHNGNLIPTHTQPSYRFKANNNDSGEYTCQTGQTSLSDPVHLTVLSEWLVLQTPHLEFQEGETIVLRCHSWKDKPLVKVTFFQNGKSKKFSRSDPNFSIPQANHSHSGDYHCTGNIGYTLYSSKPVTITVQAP

[2] = target: T1, FcγRIIB-Fc fusion protein (soluble …); experiment: BIAcore
[3] = target: T1, FcγRIIB-Fc fusion protein (soluble …); experiment: BIAcore separate fit

Binder	Koff WT/Mut [1]	koff [2]	koff [3]
B1	0.62	–	–
B2	–	0.05 s⁻¹	0.05 s⁻¹
B3	2.29	0.041 s⁻¹	–
B4	1.3	0.074 s⁻¹	–
